Groups on a side chain read outwards from the residue. No end group written: not given here. maleimide = maleimide group on the activated BSA carrier, coupling the C-terminal Cys

For assay [1], the target named is T1, NME7-AB (recombinant human NME7 comprising essentially the NDPK A and B domains, expressed in E. coli) (human, UniProt Q9Y5B8 92-376).
T1 construct: Monomeric; purified over NTA-Ni and by size exclusion; the purification described uses Ni-NTA; also called recombinant NME7; NME7 (NME7-AB construct); not shown: a Strep Tag II version was al
T1 sequence: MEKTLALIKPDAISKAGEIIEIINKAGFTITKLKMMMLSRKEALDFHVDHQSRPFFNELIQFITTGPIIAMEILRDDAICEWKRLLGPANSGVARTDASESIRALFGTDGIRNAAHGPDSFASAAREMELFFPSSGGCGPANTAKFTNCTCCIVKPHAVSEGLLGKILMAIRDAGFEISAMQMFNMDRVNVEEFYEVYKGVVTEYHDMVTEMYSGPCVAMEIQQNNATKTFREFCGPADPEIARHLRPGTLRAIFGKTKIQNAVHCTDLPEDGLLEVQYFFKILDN
Put plainly: gold nanoparticle aggregation assay. How it is done:
Gold nanoparticles of a diameter of 30.0 nm were coated with an NTA-SAM surface according to Thompson et al. (ACS Appl. Mater. Interfaces, 2011, 3 (8), pp 2979-2987). The NTA-SAM coated gold nanoparticles were then activated with an equal volume of 180 uM NiSO₄, incubated for 10 min at room temperature, washed, and resuspended in a 10 mM phosphate buffer (pH 7.4). The gold nanoparticles were then loaded with PSMGFR N-10 peptide ([…]-HHHHHH (SEQ ID NO:112)) at 0.5 uM final concentration, and incubated at room temperature for 10 min Recombinant NME7-AB protein expressed and purified from E. coli was added free in solution at the concentrations indicated. When particle-immobilized proteins bind to each other, or simultaneously bind to two different peptides on two different particles, the particle solution color changes from pink/red to purple/blue. If the protein added free in solution causes particle aggregation, it is strong evidence that the free protein dimerizes the cognate peptide, since binding to a single peptide would not induce two or more particles to be brought into close proximity to each other.
The NME7-AB is added free in solution at the concentrations indicated. Solution color change from pink to purple/blue from particle aggregation indicates binding between the MUC* peptide on the particles and NME7 free in solution. […]

In assay [2] the target is T1, NME7-AB (recombinant human NME7 …). Put plainly: sandwich ELISA, NME7-AB held on plate-bound PSMGFR, detection with HRP labeled anti-His-tag antibody. How it is done: (§1) The PSMGFR peptide bearing a C-terminal Cysteine (PSMGFR-Cys) was covalently coupled to BSA using Inject Maleimide activated BSA kit (Thermo Fisher). PSMGFR-Cys coupled BSA was diluted to 10 ug/mL in 0.1M carbonate/bicarbonate buffer pH 9.6 and 50 uL was added to each well of a 96 well plate. After overnight incubation at 4° C., the plate was wash twice with PBS-T and a 3% BSA solution was added to block remaining binding site on the well. After 1 h at RT the plate was washed twice with PBS-T and NME7, diluted in PBS-T+1% BSA, was added at different concentrations. After 1 h at RT the plate was washed 3× with PBS-T and anti-NM23-H7 (B-9, Santa Cruz Biotechnology), diluted in PBS-T+1% BSA, was added at 1/500 dilution. […] After 1 h at RT the plate was washed 3× with PBS-T and binding of NME7 was measured at 415 nm using a ABTS solution (Pierce). […]
(§2) After 1 h at RT the plate was washed 3× with PBS-T and HisTagged PSMGFR peptide (PSMGFR-His) or biotinylated PSMGFR peptide (PSMGFR-biotin), diluted in PBS-T+1% BSA, was added at different concentration. […] After 1 h at RT the plate was washed 3× with PBS-T and binding of PSMGFR peptide to NME7 already bound to another PSMGFR peptide (which could not signal by anti-His antibody or by streptavidin) coupled BSA was measured at 415 nm using a ABTS solution (Pierce).
(In general: In an ELISA, binding on a coated surface is turned into a signal by an enzyme label.)

Assay [3] shares this target. Put plainly: sandwich ELISA, NME7-AB held on plate-bound PSMGFR, detection with streptavidin. As for the experimental part:
as §1, §2

Assay [4] has the same target. Put plainly: ELISA, carrier-coupled PSMGFR-Cys on plate. As for the experimental part: The PSMGFR peptide bearing a C-terminal Cysteine (PSMGFR-Cys) was covalently coupled to BSA using Inject Maleimide activated BSA kit (Thermo Fisher). PSMGFR-Cys coupled BSA was diluted to 10 ug/mL in 0.1M carbonate/bicarbonate buffer pH 9.6 and 50 uL was added to each well of a 96 well plate. After overnight incubation at 4° C., the plate was wash twice with PBS-T and a 3% BSA solution was added to block remaining binding site on the well. After 1 h at RT the plate was washed twice with PBS-T and NME7, diluted in PBS-T+1% BSA, was added at different concentrations. After 1 h at RT the plate was washed 3× with PBS-T and anti-NM23-H7 (B-9, Santa Cruz Biotechnology), diluted in PBS-T+1% BSA, was added at 1/500 dilution. After 1 h at RT the plate was washed 3× with PBS-T and goat anti mouse-HRP, diluted in PBS-T+1% BSA, was added at 1/3333 dilution. After 1 h at RT the plate was washed 3× with PBS-T and binding of NME7 was measured at 415 nm using a ABTS solution (Pierce).

B1: PSMGFR N-10 peptide (His-tagged) (peptide)
peptide: QFNQYKTEAASRYNLTISDVSVSDVPFPFSAQSGAHHHHHH
notes: loaded on NTA-Ni-SAM coated gold nanoparticles; also called N-10 PSMGFR peptide; MUC1* peptide on NTA-Ni-SAM nanoparticles
For B1, in assay [1], the binding result is “binds”.

B2: histidine-tagged MUC1* extra cellular domain peptide (His-tagged PSMGFR sequence) (peptide)
peptide: GTINVHDVETQFNQYKTEAASRYNLTISDVSVSDVPFPFSAQSGAHHHHHH
notes: also called PSMGFR-His; HisTagged PSMGFR peptide
In the case of B2, the binding result in assay [2] is “binds”.

B3: biotinylated PSMGFR peptide (PSMGFR-biotin) (peptide)
peptide: GTINVHDVETQFNQYKTEAASRYNLTISDVSVSDVPFPFSAQSGA
modifications: also: biotinylated (position not given here)
notes: also called second MUC1* peptide with biotin
Regarding B3, in assay [3], the binding result is recorded as “binds”.

B4: PSMGFR peptide bearing a C-terminal Cysteine (PSMGFR-Cys) coupled to BSA (peptide)
peptide: GTINVHDVETQFNQYKTEAASRYNLTISDVSVSDVPFPFSAQSGAC([maleimide-BSA])
modifications: not fully specified
notes: Coated on the ELISA plate; also called PSMGFR-Cys coupled BSA; first MUC1* peptide of the sandwich ELISA
B4: the binding result in assay [4] is reported as “binds”.

Values taken from US20230287338A1 (MINERVA BIOTECHNOLOGIES, published 2023).
